Entries after “also recorded” stand apart in the source; their conditions may differ. One block for each compound: values may come before it.
Legend:
CCX CKR [1] = biological target: T1, CCX CKR (Homo sapiens, UniProt Q9NPB9); assay: Small molecule screen: inhibition of 125I-ELC binding to HEK293 cells expressing CCX CKR; details: for Effect on binding between ELC and CCX CKR: 125I-ELC ~25-100 pM, compounds 1-5 μg/mL, ~3 hours at 4° C., HEK293 Flag-CCX CKR cells; for Type of modulator of CCX CKR function: Table 1, class given beside the label
T1 construct: Full length CCX CKR expression constructs were made in pIRESpuro expression vector; expressed in transfected cells
T1 sequence (Q9NPB9 1-350): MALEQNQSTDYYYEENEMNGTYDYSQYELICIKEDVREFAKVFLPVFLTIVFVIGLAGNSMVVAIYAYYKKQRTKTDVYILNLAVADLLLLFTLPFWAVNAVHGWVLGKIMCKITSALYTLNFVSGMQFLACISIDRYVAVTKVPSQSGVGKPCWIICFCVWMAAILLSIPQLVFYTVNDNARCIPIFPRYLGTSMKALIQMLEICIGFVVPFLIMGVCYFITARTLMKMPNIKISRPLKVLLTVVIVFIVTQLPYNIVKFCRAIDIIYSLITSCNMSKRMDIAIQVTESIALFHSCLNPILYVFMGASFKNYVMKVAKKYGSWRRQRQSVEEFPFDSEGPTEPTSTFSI
Experimental: Source plates of chemical libraries were obtained from commercial vendors and contained individual compounds at 5 mg/mL in DMSO, or in some instances, at 1 mg/mL. From these, multiple compound plates containing 10 compounds in each well were made, and these were diluted in 20% DMSO to a concentration of 50 μg/mL (10 μg/mL for those beginning at 1 mg/mL). An aliquot of 20 μL of each mixture was put into the test plates, which were stored frozen until use.
HEK293 cells stably expressing the M1 flag epitope-tagged CCX CKR (described in Example 3, supra) were cultured in DMEM-10% FBS, and harvested when the concentration was between 0.5-1.0×10^6 cells/mL. The cells were centrifuged and resuspended in assay buffer (20 mM HEPES, 80 mM NaCl, 1 mM CaCl2, 5 mM MgCl2, and with 0.2% bovine serum albumin, pH 7.4) to a concentration of 5.6×10^6 cells/mL.
Using a Multi-Probe automated system, 0.09 mL of cells was added to each well of the assay test plates containing the compounds, followed by 0.09 mL of ^125I-MIPβ3/ELC (from Amersham Pharmacia Biotech) diluted in assay buffer (final concentration ˜25-100 pM, with ˜50,000 cpm per well). The final concentration of the compounds was 1-5 μg/mL each. The plates were sealed and incubated for approximately 3 hours at 4° C. on a shaker platform. The assay plates were harvested using Packard GP/B filter plates, pre-soaked in PEI solution, on the vacuum harvest apparatus. Scintillation fluid (50 μL) was added to each of the wells, the plates were sealed and counted in a Top Count scintillation counter. Control wells contained either diluent only (for total counts) or excess ELC (1 μg/mL, for non-specific binding) and were used to calculate the percent of total inhibition of ELC binding for each set of compounds.

CCX CKR [2] = biological target: T1, CCX CKR; assay: Ligand binding fingerprint: displacement of 125I-ELC from CCX CKR stable transfectants by cold chemokines; details: cold competitor 200 nM; human and murine ELC, SLC, TECK; comparable with 125I-TECK
Description: In one embodiment, binding is detected as described by Dairaghi et al., 1997, J. Biol. Chem. 272:28206-209 (incorporated by reference in its entirety for all purposes) substituting CCX CKR transfectants for the CCR3 transfectants). In one embodiment, binding is detected using the filter based technique described by Dairaghi et al., 1999, J. Biol. Chem. 274:2156 (incorporated by reference in its entirety for all purposes), e.g., as shown in FIG. 4. Briefly, this technology employs expanded, efficiency-maximized radioligand binding utilizing filtration protocols. […] Filters are washed twice (25 mM HEPES, 500 mM NaCl, 1 mM CaCl25 mM MgCl2, adjusted to pH 7.1) and scintillant (e.g., MicroScint 20; 50 μl) is added to dried filters and counted (e.g., using a Packard Topcount scintillation counter). The competition dose-response curves is analyzed by standard methods to determine IC50 values (e.g., using GraphPad Prism software (San Diego, Calif.)). […]
In order to rapidly and thoroughly define a given chemokine receptor's ligand binding fingerprint, we have established an approach to comprehensively profile chemokine receptors using a large array of purified chemokines and chemokine variants. […] Employing radioligand binding of ^125I-labeled-ELC or ^125I-TECK to CCX CKR stable transfectants, chemokine specificity for the new receptor was determined. […]

CCX CKR [3] = biological target: T1, CCX CKR; assay: Radioligand binding competition with Scatchard transformation (binding constants); details: for Affinity class of CCX CKR ligands (summary of Examples 4-6): summary statement
Description: In one embodiment, binding is detected as described by Dairaghi et al., 1997, J. Biol. Chem. 272:28206-209 (incorporated by reference in its entirety for all purposes) substituting CCX CKR transfectants for the CCR3 transfectants). In one embodiment, binding is detected using the filter based technique described by Dairaghi et al., 1999, J. Biol. Chem. 274:2156 (incorporated by reference in its entirety for all purposes), e.g., as shown in FIG. 4. Briefly, this technology employs expanded, efficiency-maximized radioligand binding utilizing filtration protocols. In these assays, 1×10^5 CCXCKR-293 HEK cells are incubated with […] (MlP3beta) (final concentration of ˜0.05 nM) in the presence of unlabeled chemokine for 3 h at 4° C. in 25 mM HEPES, 140 mM NaCl, 1 mM CaCl2, 5 mM MgCl2, and 0.2% bovine serum albumin, adjusted to pH 7.1. Reactions were aspirated onto PEI-treated GF/B glass filters using a cell harvester (Packard). Filters are washed twice (25 mM HEPES, 500 mM NaCl, 1 mM CaCl25 mM MgCl2, adjusted to pH 7.1) and scintillant (e.g., MicroScint 20; 50 μl) is added to dried filters and counted (e.g., using a Packard Topcount scintillation counter). The competition dose-response curves is analyzed by standard methods to determine IC50 values (e.g., using GraphPad Prism software (San Diego, Calif.)). Additionally, a Scatchard transformation can be used to estimate the receptor sites per cell (e.g., using WaveMetrics Igor software (Lake Oswego, Oreg.)).
Binding analysis was carried out using efficiency-maximized radioligand binding utilizing filtration protocols designated “Displace Max” (Dairaghi et al., 1999, J Biol. Chem. 274:21569). […]
The binding interactions identified in the primary screen were examined quantitatively by extensive radioligand binding competition to CCX CKR stable transfectants and Scatchard transformation of the displacement data (FIG. 4B). […]

CCX CKR [4] = biological target: T1, CCX CKR; assay: Preliminary chemotaxis analysis of CCX CKR transfectants; format: cell-based; details: preliminary chemotaxis analyses, not shown
CCX CKR [5] = biological target: T1, CCX CKR; assay: Ligand induced internalization of CCX CKR in 293 F-CCR10 cells (FACS, anti-Flag); format: cell-based; details: 100 nM chemokine, 37° C., 15 or 45 minutes
Experimental: 293 cells transfected with the Flag-CCX CKR fusion plasmid (i.e., “293 F-CCR10 cells;” see Example 3) were incubated at 37° C. with varying concentrations of chemokines (ELC, SLC, TECK, murine CTACK and MCP4) for 15 or 45 minutes. Following incubation, the cells were washed and fixed with 3% paraformaldehyde for 15 minutes on ice. The cells were stained with anti-Flag M1 antibody, followed by a PE-conjugated anti-mouse secondary antibody. FACS analysis were then carried out to determine surface expression of the receptor.
Results: A reduction in antibody binding in the presence of ligand is an indication of ligand-induced internalization of the receptor.

CCX CKR [6] = biological target: T1, CCX CKR; assay: Adhesion of HEK293-CCX CKR cells to immobilized ELC-stalkokine and competition by soluble chemokines; format: cell-based; details: 5-10 ug/ml soluble recombinant chemokine as competitor
Description: “Stalkokine” technology was used to :identify the chemokines bound by the CCX CKR. Briefly, immobilized native chemokines alone are incapable of capturing cells bearing cognate receptors (Imai et al., 1997, Cell 91:521). We have developed non-native chemokine structures, stalkokines, comprising chemokine moieties engineered as N-terminal attachments to extended modified mucins (Bazan et al., 1997, Nature 385:640). In one embodiment, stalkokines, harvested in the supernatants of HEK293 cells after transient transfection, are anchored to solid substrates via antibodies against carrier domains (e.g. poly-His epitopes) engineered to the carboxyl terminus, leaving the chemokine domain free to interact with candidate orphan receptors.
To determine ligand binding to CCX CKR, HEK293-CCX CKR cells were used to interrogate chemokine ‘stalkokines’ (SK), i.e., molecules in which discrete chemokine domains were engineered to be tethered to the end of an extended stalk structure. […] In all cases, nonadherent cells were removed by washing in PBS; remaining adherent cells were fixed with 1% glutaraldehyde, photoimaged and counted. […]

CCX CKR [7] = biological target: T1, CCX CKR; assay: Homologous competition binding of radiolabeled chemokine on HEK293-CCX CKR cells
Description: Furthermore ELC-SK mediated adhesion was abolished in the presence of soluble native ELC as a competitor (FIG. 3A, top row). […] Moreover, radiolabeled ELC was used in a traditional homologous competition assay in the presence of increasing concentrations of unlabeled ELC. […] Taken together, the stalkokine-based adhesion and radiolabeled ligand binding/homologous competition assays indicate that CCX CKR is a new chemokine receptor that bound a novel compliment of chemokines.

Effect on binding between ELC and CCX CKR (CCX CKR [1]): inhibit binding | Type of modulator of CCX CKR function (CCX CKR [1]): Com- pound II (antago- nist)
Compound: CC1CCCCN1CCCN(Cc1ccc(OCc2ccccc2)cc1)C(=O)NC12CCCC3CCC1CC2C3 (centres unmarked) [Compound II]

Effect on binding between ELC and CCX CKR (CCX CKR [1]): inhibit binding | Type of modulator of CCX CKR function (CCX CKR [1]): Com- pound I (antago- nist)
Compound: CC1CCCCN1CCCN(Cc1ccc(OCc2ccccc2)cc1)C(=O)Nc1ccc(Cl)c(Cl)c1 (centres unmarked) [Compound I]

Binding to CCX CKR by displacement of 125I-labeled ELC (CCX CKR [2]): lower affinity | Affinity for CCX CKR in multipoint competition, in words (CCX CKR [3]; competition against 125I-ELC): of lesser affinity, also bound well | Affinity class of CCX CKR ligands (summary of Examples 4-6) (CCX CKR [3]): lower affinity
Compound: BLC: CXC chemokine BLC

The remaining lines, values behind:

Compound: CCC(c1nc2ccccc2c(=O)n1C)N(Cc1ccco1)C(=O)Nc1cccc(C(F)(F)F)c1 (centres unmarked) [Compound III]
Effect on binding between ELC and CCX CKR (CCX CKR [1]): enhance binding | Type of modulator of CCX CKR function (CCX CKR [1]): Com- pound III (agonist)

Compound: ELC: EBII ligand chemokine, recombinant chemokine from R&D Systems
Migration of CCX CKR transfectants in response to chemokine (CCX CKR [4]): moderate migration | Internalization of the receptor (CCX CKR [5]): Internalization of the receptor was observed | Binding to CCX CKR by displacement of 125I-labeled ELC (CCX CKR [2]): bound well | Affinity class of CCX CKR ligands (summary of Examples 4-6) (CCX CKR [3]): high affinity | Effect of soluble chemokine on ELC-SK mediated adhesion of HEK293-CCX CKR cells (CCX CKR [6]): ablation of adhesion; also recorded: abolished | Binding of radiolabeled ELC, homologous competition with unlabeled ELC (CCX CKR [7]): significant binding

Compound: MCP4: chemokine used as non-binding control in internalization assay
Internalization of the receptor (CCX CKR [5]): did not cause internalization

Compound: MCP-3: soluble chemokine, representative of non-competing chemokines
Effect of soluble chemokine on ELC-SK mediated adhesion of HEK293-CCX CKR cells (CCX CKR [6]): no diminution in adhesion and not

From US6998239B1, “Method for identifying a modulator of the binding of CCX CKR polypeptide to a chemokine” (ChemoCentryx, Inc., priority 1999, dated 2006)
